Test results as given in PMC11154705, “Spatio-temporal control of asymmetric septum positioning during sporulation in Bacillus subtilis” (The Journal of Biological Chemistry, 2024).
Several values for one entry are separate records, joined by “and”; a condition that tells them apart may be missing. Equal values may be shown once.

Target: the molecule itself
Assay: SEC; Superdex S200 16/60 in 50 mM Tris-HCl pH 8.5, 300 mM NaCl; proteins applied separately or mixed (350 ul RefZ 28.8 uM premixed with 350 ul cyt-SpoIIE 15.5 uM, dialyzed overnight, 500 ul loaded); fractions analysed by anti-His Western blot

B1: His-tagged cytosolic part of SpoIIE (375-827 aa) (domain or fragment, B. subtilis, UniProt P37475 375-827, looked up)
chain: YQASDEQTDDSEVDLFLSKITEHSCQTCYKKNRCWVQNFDKTYDLMKQVMLETEEKEYASNRRLKKEFQQYCSKSKQVEELIEDELAHHHAHLTLKKKVQDSRRLVAEQLLGVSEVMADFSREIKREREQHFLQEEQIIEALQHFGIEIQHVEIYSLEQGNIDIEMTIPFSGHGESEKIIAPMLSDILEEQILVKAEQHSPHPNGYSHVAFGSTKSYRVSTGAAHAAKGGGLVSGDSYSMMELGARKYAAAISDGMGNGARAHFESNETIKLLEKILESGIDEKIAIKTINSILSLRTTDEIYSTLDLSIIDLQDASCKFLKVGSTPSFIKRGDQVMKVQASNLPIGIINEFDVEVVSEQLKAGDLLIMMSDGIFEGPKHVENHDLWMKRKMKGLKTNDPQEIADLLMEEVIRTRSGQIEDDMTVVVVRIDHNTPKWASIPVPAIFQNKQEIS
notes: SpoIIE, Bacillus subtilis, cytosolic part, residues 375-827; Elutes as dimers, tetramers and higher oligomers; also called cyt-SpoIIE; not shown: His-tag, N-terminal, kept
- stoichiometry N: 2 and 4
